Data on 3 molecules can be found in article PMC12331936, “Structural Insights into the Protein Mannosyltransferase from Mycobacterium tuberculosis reveal a WW-Domain-Like Protein Motif in Bacteria” (Communications Biology, 2025).

The subject of one data set is EL4Cter* peptide. It is filed as binding. Conditions: EL4Cter* 35 µM; increasing concentration of Z^x95; mean of three independent measurements.
Data set [1] relates to MtPMT. The conditions noted are these: in vivo (M. smegmatis cell assay); cited from earlier work.
Another data set relates to PhoA. It is filed as cell-based, E. coli.
In another data set the test system is FasC^His. It counts as cell-based, M. smegmatis.
Data set [2] deals with MtPMT. It is filed as cell-based. Conditions: MtPMT mutant expressed in M. smegmatis ΔMsPMT; ELLA, relative to WT (100%) and No PMT (0%).

`Cc1cc(-n2c(C)cc(/C=C/C(=O)N3CCCC3c3cccs3)c2C)no1` (stereo not drawn) [Z^x95, (2E)-3-[2,5-dimethyl-1-(5-methyl-1,2-oxazol-3-yl)-1H-pyrrol-3-yl]-1-[2-(thiophen-2-yl)pyrrolidin-1-yl]prop-2-en-1-one]: the “effect on thermal denaturation curves of EL4Cter*” value with EL4Cter* peptide is recorded as “dose-dependent deviation of EL4Cter* thermal denaturation curves”. Moreover, the “effect on FasC mannosylation in vivo” value with MtPMT [1] is “reduce FasC mannosylation in vivo”.

B1: MtPMT: M. tuberculosis protein-O-mannosyltransferase, wild type (protein, UniProt P9WN05 1-522, looked up)
Polyprenol-phosphate-mannose-- …: MTARPPESCVLAKDRPEEPVVPVVSPGPLVPVADFGPLDRLRGWIVTGLITLLATVTRFLNLGSLTDAGTPIFDEKHYAPQAWQVLNNHGVEDNPGYGLVVHPPVGKQLIAIGEAIFGYNGFGWRFTGALLGVVLVALVVRIVRRISRSTLVGAIAGVLLICDGVSFVTARTALLDGFLTFFVVAAFGALIVDRDQVRERMHIALLAGRSAATVWGPRVGVRWWRFGAGVLLGLACATKWSGVYFVLFFGAMALAFDVAARRQYQVQRPWLGTVRRDVLPSGYALGLIPFAVYLATYAPWFASETAIDRHAVGQAVGRNSVVPLPDAVRSLWHYTAKAFHFHAGLTNSAGNYHPWESKPWTWPMSLRPVLYAIDQQDVAGCGAQSCVKAEMLVGTPAMWWLAVPVLAYAGWRMFVRRDWRYAVVLVGYCAGWLPWFADIDRQMYFFYAATMAPFLVMGISLVLGDILYHPGQGSERRTLGLIVVCCYVALVVTNFAWLYPVLTGLPISQQTWNLEIWLPSWR
Take B1: the “phosphatase activity on solid medium (chromogenic substrate)” value in the data set with PhoA was “remained uncolored”. For the same molecule, in the data set on FasC^His, the “number of FasC glycosylation states” value was found to be 18.

B2: W362A (protein, UniProt P9WN05 1-522, looked up, variant W362A)
Polyprenol-phosphate-mannose-- …: MTARPPESCVLAKDRPEEPVVPVVSPGPLVPVADFGPLDRLRGWIVTGLITLLATVTRFLNLGSLTDAGTPIFDEKHYAPQAWQVLNNHGVEDNPGYGLVVHPPVGKQLIAIGEAIFGYNGFGWRFTGALLGVVLVALVVRIVRRISRSTLVGAIAGVLLICDGVSFVTARTALLDGFLTFFVVAAFGALIVDRDQVRERMHIALLAGRSAATVWGPRVGVRWWRFGAGVLLGLACATKWSGVYFVLFFGAMALAFDVAARRQYQVQRPWLGTVRRDVLPSGYALGLIPFAVYLATYAPWFASETAIDRHAVGQAVGRNSVVPLPDAVRSLWHYTAKAFHFHAGLTNSAGNYHPWESKPWTAPMSLRPVLYAIDQQDVAGCGAQSCVKAEMLVGTPAMWWLAVPVLAYAGWRMFVRRDWRYAVVLVGYCAGWLPWFADIDRQMYFFYAATMAPFLVMGISLVLGDILYHPGQGSERRTLGLIVVCCYVALVVTNFAWLYPVLTGLPISQQTWNLEIWLPSWR
Take B2: the “reduction of expression of mutated enzyme (PhoA activity of PhoA fusion)” value with PhoA is “about 50%”. The “FasC^His mannosylation / MtPMT enzymatic activity (ConA binding)” value with MtPMT [2] was “absence of Fasc^His mannosylation”.
